{
  "source": "paper PMC7781312",
  "about": "(bioRxiv, 2021)",
  "target": "SARS-CoV-2 2P S ectodomain trimer (SARS-CoV-2 (YP_009724390), UniProt P0DTC2, stabilised)",
  "test": "BLI",
  "data": [
    {"binder": "B6 monoclonal antibody (recombinant IgG with human constant regions) (antibody, V domains shown) VH: EVQLQQSGPVLVKPGASVRMSCKASGYTITDYYLNWVKQSHGKSLEWLGVLNPYSGGSLYSQTFKGKATLTVDRSSSTAYLELNSLTSEDSAVYYCARQLGRGNGLDYWGQGTSVTVSS VL: NIMMTQSPSSLAVSAGEKVTMSCKSSQSVLHSSDQKNYLAWYQQKPGQSPKLLIYWASTRESGVPDRFTGSGSGTDFTLTISSVQAEDLAVYFCHQYLSSYTFGGGTKLEIK", "values": [
      {"measurement": "binding result", "value": "binds"}
    ]}
  ]
}
